± gives the standard deviation of the averaged measurements.
Test system: Saccharomyces cerevisiae
Test: protein stability index of tFT-peptide fusion (C-terminal peptide) (PSI (0-1 scale)); higher = more stable (slower turnover)
Settings: genetic background: wild type; temperature: 30 C
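Note: PSI is a weighted mean of sequencing reads over stability bins, variants kept only with over 10 reads, mCherry proximal and sfGFP distal, peptide attached via GGGS linker.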

NGGRSATGSVVV and NGLPGNLYAGKT are within error of each other in protein stability index: 0.701 ± 0.066 for the first, 0.6558 ± 0.0062 for the second.

NGPAPTFSPAVR and NHETRNCEGINS are within error of each other in protein stability index: 0.685 ± 0.032 for the first, 0.657 ± 0.026 for the second.

Compared with NHRETNRNRGKL, NHTKAGTEKNKN is lower in protein stability index: 0.75295 ± 0.00072 for the first, 0.618 ± 0.067 for the second.

Compared with NIIRGVIAGNPA, NILTIYRTMKSR is lower in protein stability index: 0.747 ± 0.026 for the first, 0.6855 ± 0.0056 for the second.

NKFSAFSPETWS and NKIDNNKKIHRV are within error of each other in protein stability index: 0.7385 ± 0.00092 for the first, 0.699 ± 0.053 for the second.

Compared with NKKEYHDRKKKS, NKKKKKRNKQKN is higher in protein stability index: 0.619 ± 0.045 for the first, 0.762 ± 0.011 for the second.

NKQKKDEKNKTE and NKREYYWINLEC are within error of each other in protein stability index: 0.73 ± 0.17 for the first, 0.562 ± 0.014 for the second.

NKRKIKKKKKRG and NLETDRRRTYGM are within error of each other in protein stability index: 0.651 ± 0.088 for the first, 0.697 ± 0.036 for the second.

NLETVAENMFLA and NLEVNFKNIYVK are within error of each other in protein stability index: 0.71 ± 0.053 for the first, 0.679 ± 0.038 for the second.

NLPERSRANTLS and NLPLPPSPFALP are within error of each other in protein stability index: 0.6749 ± 0.0061 for the first, 0.733 ± 0.053 for the second.

NLRLYDCKVAPP and NLRQKQKKIKKT are within error of each other in protein stability index: 0.691 ± 0.036 for the first, 0.642 ± 0.041 for the second.

NLYENQDHETYR and NMPGALETKMGV are within error of each other in protein stability index: 0.651 ± 0.13 for the first, 0.599 ± 0.054 for the second.

NNIMKPKRKIIK and NNRLSEDVLCEY are within error of each other in protein stability index: 0.683 ± 0.031 for the first, 0.665 ± 0.078 for the second.

NNTVRTPKLSIE and NPLRVRNNNDGL are within error of each other in protein stability index: 0.71584 ± 0.00044 for the first, 0.745 ± 0.047 for the second.

NPLSSPSLPPSS and NPPAPPAPHLST are within error of each other in protein stability index: 0.625 ± 0.057 for the first, 0.685 ± 0.013 for the second.

NPRGAKRRNSRK and NPSNEKERRKKN are within error of each other in protein stability index: 0.663 ± 0.058 for the first, 0.704 ± 0.02 for the second.

NPYLLCKFSTLL and NQDIKAENTIKL are within error of each other in protein stability index: 0.675 ± 0.028 for the first, 0.668 ± 0.057 for the second.

NQHNARTRWLCP and NQNKENKEIDRK are within error of each other in protein stability index: 0.645 ± 0.017 for the first, 0.64 ± 0.097 for the second.

NQSSTSEENSGG and NQTVEQPLPTSL are within error of each other in protein stability index: 0.653 ± 0.024 for the first, 0.708 ± 0.042 for the second.

NRAIVAYFPGMF and NRDSALGPTWAP are within error of each other in protein stability index: 0.666 ± 0.042 for the first, 0.718 ± 0.034 for the second.

NRDSPPAGEIHA and NREPQPAHTHML are within error of each other in protein stability index: 0.648 ± 0.082 for the first, 0.684 ± 0.043 for the second.

NRNDKNIERRKM and NRTGVRIEIKGR are within error of each other in protein stability index: 0.69 ± 0.069 for the first, 0.636 ± 0.081 for the second.

Going from NSTLSSNATRVK to NTDSHIKIRKKI, the protein stability index falls from 0.727 ± 0.015 to 0.7032 ± 0.0068.

NTKEETKESRGR and NTPSKKHDLNRL are within error of each other in protein stability index: 0.713 ± 0.059 for the first, 0.707 ± 0.033 for the second.

NTSPTRLSCPVF and NTTITKMYTKEW are within error of each other in protein stability index: 0.616 ± 0.11 for the first, 0.714 ± 0.05 for the second.

NVAKTTTRHNRP and NVEARLARVHWM are within error of each other in protein stability index: 0.718 ± 0.011 for the first, 0.73 ± 0.12 for the second.

NVEPWTRGMGSA and NVLSGIDKRLTI are within error of each other in protein stability index: 0.659 ± 0.02 for the first, 0.71 ± 0.053 for the second.

Compared with NVLVRFFSSGVW, NVRCLVELGGEV is lower in protein stability index: 0.85 ± 0.047 for the first, 0.714 ± 0.058 for the second.

NWRCTLGWSWVR and NYAMRGSVRTDK are within error of each other in protein stability index: 0.706 ± 0.058 for the first, 0.665 ± 0.028 for the second.

First: NYHAIANRILAK
Second: NYIIRKTKERHK
The protein stability index of the first is lower: 0.6026 ± 0.004 for the first, 0.781 ± 0.11 for the second.

NYMQVSIKNKKE and NYNNGHNLKKER are within error of each other in protein stability index: 0.641 ± 0.028 for the first, 0.634 ± 0.012 for the second.

NYYLPLESCTIG and PAAFPRPTRHAA are within error of each other in protein stability index: 0.664 ± 0.03 for the first, 0.693 ± 0.067 for the second.

PAASRPPSPSLL and PAAVAQAFPLIT are within error of each other in protein stability index: 0.665 ± 0.046 for the first, 0.649 ± 0.05 for the second.

PACVLVRRGWYL and PAGPPHPCPHPS are within error of each other in protein stability index: 0.7277 ± 0.0029 for the first, 0.708 ± 0.05 for the second.

PAHAPSLSPPPF and PAKTEPGPLNHR are within error of each other in protein stability index: 0.697 ± 0.016 for the first, 0.68 ± 0.02 for the second.

PAPLPPPPPPRP and PAPLSRPLSPTL are within error of each other in protein stability index: 0.689 ± 0.015 for the first, 0.6841 ± 0.0055 for the second.

Compared with PAPPLPPPAAPP, PAPPLPPPPSPY is higher in protein stability index: 0.576 ± 0.0069 for the first, 0.72 ± 0.11 for the second.

PAPVFPILTPPY and PARFPPLPFPPI are within error of each other in protein stability index: 0.734 ± 0.059 for the first, 0.74 ± 0.035 for the second.

PARPEPPRANWR and PASFAYRTLNMV are within error of each other in protein stability index: 0.647 ± 0.058 for the first, 0.661 ± 0.082 for the second.

PASPLFAPSVVP and PASPPPRTISSP are within error of each other in protein stability index: 0.747 ± 0.0086 for the first, 0.704 ± 0.064 for the second.

PASRLHSPSSPP gave a protein stability index of 0.703 ± 0.038.

Source: the supplement of paper PMC10724198
